Laboratory results taken from patent US20240390520A1, “GENE EDITING OF PCSK9 OR ANGPTL3 AND COMPOSITIONS AND METHODS OF USING SAME FOR TREATMENT OF DISEASE” (Verve Therapeutics, Inc., priority 2021, published 2024).

System: OT1 site
Experiment: Off-target OT1 editing, MessengerMax transfection in PHH, Targeted Amplicon sequencing
Type: cell-based, human
Conditions: PHH lot STL, MessengerMax with mRNA MA079, 5,000 and 2,500 ng/mL total RNA
Description: The genomic DNA from PHH cells transfected with one of 20 sgRDNA spacer sequence variants were also tested for off-target editing percentage by targeted amplicon sequencing (FIGS. 31-32). The genomic DNA samples assessed were from cells that received doses of the total RNA of 5,000 ng/mL and 2,500 ng/mL. OT1 primer (GA0100_OT_B2) was used to measure editing percentage (A>G) in position 1-10 of the OT1 site (Table. 4). Technical replicates were performed.
Table. […] VEP Gene and VEP Consequence refer to the genomic location and functional role of OT1 as determined by the Ensembl Variant Effect Predictor (VEP) tool v98.3. […] The CADD score was determined using the Combined Annotation-Dependent Depletion v1.6 (CADD) framework, which aims to annotate and interpret human genetic variation through the integration of diverse annotations into a single measure. […] To bioinformatically assess the potential for oncogenesis due to editing at the off-target site, it was assessed whether OT1 is located within a gene in the Cancer Gene Census of the Catalogue of Somatic Mutations in Cancer (COSMIC) v92; it is not. […]

B1: GA690: ANGPTL3 sgRDNA spacer sequence variant with minimally modified tracrRNA (nucleic acid)
guide: AAGATACCTGAATAACCCTCGTTTTAGAGCTAGAAATAGCAAGTTAAAATAAGGCTAGTCCGTTATCAACTTGAAAAAGTGGCACCGAGTCGGTGCTTTT
modifications: DNA-containing spacer with minimally modified tracrRNA, spacer pattern not given here
  off-target editing (A>G) at OT1, positions 1-10: indeed edited at OT1
